Test results published in patent publication US20130064834A1 (published 2013).

Assays:
Human PCSK9-myc-myc-his [1] = biological target: T1, Human PCSK9-myc-myc-his (human, UniProt Q8NBP7 31-692); assay: ELISA, mAb coated, 1.7 nM antigen
T1 construct: also called hPCSK9-mmh; hPCSK9

hPCSK9(D374Y)-mmh [2] = biological target: T2, hPCSK9(D374Y)-mmh (human, UniProt Q8NBP7 31-692); assay: ELISA, mAb coated, 1.7 nM antigen
T2 construct: also called hPCSK(D374Y)-mmh

[3] = biological target: T3, tagged rhesus monkey (Macaca mulata) PCSK9 (rhesus monkey (Macaca mulata), UniProt A8T666 31-692); assay: ELISA, mAb coated, 1.7 nM antigen
T3 construct: also called mmPCSK9-mmh; mmPCSK9

[4] = biological target: T4, cynomolgus monkey (Macaca fascicularis) PCSK9, myc-myc-his tagged (cynomolgus monkey (Macaca fascicularis), UniProt A8T662 31-692 (Macaca nemestrina entry), limits assumed); assay: ELISA, mAb coated, 1.7 nM antigen
T4 construct: also called mfPCSK9-mmh; mfPCSK9

[5] = biological target: T5, mouse PCSK9, myc-myc-his tagged (mouse, UniProt Q80W65 35-694); assay: ELISA, mAb coated, 1.7 nM antigen
T5 construct: also called mPCSK9-mmh; mPCSK9

[6] = biological target: T6, rat (Rattus norvegicus) PCSK9, myc-myc-his tagged (rat (Rattus norvegicus), UniProt P59996 31-691); assay: ELISA, mAb coated, 1.7 nM antigen
T6 construct: also called rPCSK9-mmh; rPCSK9

[7] = biological target: T7, Chimeric protein #1 (mPro-hCat-mC-term-mmh) (mouse; human, UniProt Q80W65 35-694); assay: ELISA, mAb coated, 1.7 nM antigen
T7 chain: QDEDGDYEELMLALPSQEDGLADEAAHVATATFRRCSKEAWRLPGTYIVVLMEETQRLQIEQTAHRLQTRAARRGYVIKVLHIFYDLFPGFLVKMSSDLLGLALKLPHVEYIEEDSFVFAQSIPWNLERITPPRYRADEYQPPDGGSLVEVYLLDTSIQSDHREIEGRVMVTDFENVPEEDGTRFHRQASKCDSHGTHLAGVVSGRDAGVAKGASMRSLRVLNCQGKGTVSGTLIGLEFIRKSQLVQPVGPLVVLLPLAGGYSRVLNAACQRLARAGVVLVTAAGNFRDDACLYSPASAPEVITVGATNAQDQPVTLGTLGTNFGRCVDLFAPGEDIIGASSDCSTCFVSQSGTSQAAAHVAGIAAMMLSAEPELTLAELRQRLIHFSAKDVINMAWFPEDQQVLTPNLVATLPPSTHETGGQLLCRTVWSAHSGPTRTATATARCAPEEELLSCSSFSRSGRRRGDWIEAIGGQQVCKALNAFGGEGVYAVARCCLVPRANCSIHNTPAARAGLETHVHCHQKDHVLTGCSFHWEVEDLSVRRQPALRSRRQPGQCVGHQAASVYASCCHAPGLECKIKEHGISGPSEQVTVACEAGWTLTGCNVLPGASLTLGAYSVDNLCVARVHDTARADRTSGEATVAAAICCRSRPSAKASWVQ

[8] = biological target: Chimeric protein #2 (hPro-mCat-mC-term-mmh) (human; mouse, UniProt Q80W65 19-694); assay: ELISA, mAb coated, 1.7 nM antigen
Human PCSK9-myc-myc-his [9] = biological target: T1, Human PCSK9-myc-myc-his; assay: competition ELISA vs EGF-A, pH 5.5
Protocol: (§1) Briefly, hLDLR-ecto, hLDLR EGF-A-hFc or hLDLR EGF-AB-hFc, each at 2 μg/ml, was coated on a 96-well plate in PBS buffer overnight at 4° C., and nonspecific binding sites blocked with BSA. […] The equilibrated sample solutions were transferred to receptor or receptor fragment coated plates.

[10] = biological target: T3, tagged rhesus monkey (Macaca mulata) …; assay: competition ELISA vs EGF-A, pH 5.5
Protocol: as §1

[11] = biological target: T5, mouse PCSK9, myc-myc-his tagged; assay: competition ELISA vs EGF-A, pH 5.5
Protocol: as §1

[12] = biological target: T8, his-tagged Syrian golden hamster (Mesocricetus auratus) PCSK9 (Syrian golden hamster (Mesocricetus …)); assay: competition ELISA vs EGF-A, pH 5.5
T8 construct: also called maPCSK9-h; maPCSK9
T8 chain: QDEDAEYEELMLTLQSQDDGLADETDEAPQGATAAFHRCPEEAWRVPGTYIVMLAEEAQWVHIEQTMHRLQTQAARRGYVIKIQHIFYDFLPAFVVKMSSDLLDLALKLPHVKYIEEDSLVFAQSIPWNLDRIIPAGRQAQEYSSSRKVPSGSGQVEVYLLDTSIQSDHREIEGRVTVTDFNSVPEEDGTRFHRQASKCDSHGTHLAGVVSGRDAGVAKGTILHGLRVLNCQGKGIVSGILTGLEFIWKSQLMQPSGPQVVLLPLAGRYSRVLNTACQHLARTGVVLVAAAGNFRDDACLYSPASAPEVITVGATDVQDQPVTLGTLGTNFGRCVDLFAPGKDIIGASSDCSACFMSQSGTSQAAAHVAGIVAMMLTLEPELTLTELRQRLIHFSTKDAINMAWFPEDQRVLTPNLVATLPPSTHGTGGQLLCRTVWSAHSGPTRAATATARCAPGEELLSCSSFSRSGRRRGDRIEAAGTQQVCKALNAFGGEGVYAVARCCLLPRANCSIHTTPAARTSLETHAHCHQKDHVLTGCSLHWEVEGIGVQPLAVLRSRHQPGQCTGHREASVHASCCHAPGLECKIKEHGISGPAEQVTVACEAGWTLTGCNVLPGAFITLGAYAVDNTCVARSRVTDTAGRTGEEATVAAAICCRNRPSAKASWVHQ
Protocol: as §1

[13] = biological target: T6, rat (Rattus norvegicus) PCSK9, …; assay: competition ELISA vs EGF-A, pH 5.5
Protocol: as §1

Human PCSK9-myc-myc-his [14] = biological target: T1, Human PCSK9-myc-myc-his; assay: SPR, mAb amine-coupled, 37C, pH 5.5
Description: Briefly, mAbs were immobilized onto BIACORE™ CM5 sensor chips via amine coupling.

hPCSK9(D374Y)-mmh [15] = biological target: T2, hPCSK9(D374Y)-mmh; assay: SPR, mAb captured on anti-human IgG, 25C
Human PCSK9-myc-myc-his [16] = biological target: T1, Human PCSK9-myc-myc-his; assay: SPR, antigen captured at low density, pH 7.4, 25C
Human PCSK9-myc-myc-his [17] = biological target: T1, Human PCSK9-myc-myc-his; assay: SPR, antigen captured at high density, pH 5.5, 25C

T3 sequence (A8T666 31-692 limits assumed): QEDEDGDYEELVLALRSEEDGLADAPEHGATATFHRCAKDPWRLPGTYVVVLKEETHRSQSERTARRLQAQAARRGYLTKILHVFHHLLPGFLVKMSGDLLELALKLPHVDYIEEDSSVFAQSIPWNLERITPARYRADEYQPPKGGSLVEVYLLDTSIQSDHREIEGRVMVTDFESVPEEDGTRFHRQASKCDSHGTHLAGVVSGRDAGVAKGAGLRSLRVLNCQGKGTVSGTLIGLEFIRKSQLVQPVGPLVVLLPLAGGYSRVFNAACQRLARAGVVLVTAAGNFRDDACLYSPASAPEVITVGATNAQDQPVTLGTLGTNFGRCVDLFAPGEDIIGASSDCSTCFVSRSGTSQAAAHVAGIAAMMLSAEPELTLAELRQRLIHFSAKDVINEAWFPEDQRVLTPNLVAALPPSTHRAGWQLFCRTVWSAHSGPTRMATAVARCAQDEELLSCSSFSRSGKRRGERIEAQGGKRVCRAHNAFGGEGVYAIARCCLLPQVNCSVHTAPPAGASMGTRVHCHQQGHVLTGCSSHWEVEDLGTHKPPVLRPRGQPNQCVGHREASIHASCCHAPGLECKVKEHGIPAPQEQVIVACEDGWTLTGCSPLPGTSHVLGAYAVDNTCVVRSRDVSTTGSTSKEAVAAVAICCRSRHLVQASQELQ
T6 sequence (P59996 31-691 limits assumed): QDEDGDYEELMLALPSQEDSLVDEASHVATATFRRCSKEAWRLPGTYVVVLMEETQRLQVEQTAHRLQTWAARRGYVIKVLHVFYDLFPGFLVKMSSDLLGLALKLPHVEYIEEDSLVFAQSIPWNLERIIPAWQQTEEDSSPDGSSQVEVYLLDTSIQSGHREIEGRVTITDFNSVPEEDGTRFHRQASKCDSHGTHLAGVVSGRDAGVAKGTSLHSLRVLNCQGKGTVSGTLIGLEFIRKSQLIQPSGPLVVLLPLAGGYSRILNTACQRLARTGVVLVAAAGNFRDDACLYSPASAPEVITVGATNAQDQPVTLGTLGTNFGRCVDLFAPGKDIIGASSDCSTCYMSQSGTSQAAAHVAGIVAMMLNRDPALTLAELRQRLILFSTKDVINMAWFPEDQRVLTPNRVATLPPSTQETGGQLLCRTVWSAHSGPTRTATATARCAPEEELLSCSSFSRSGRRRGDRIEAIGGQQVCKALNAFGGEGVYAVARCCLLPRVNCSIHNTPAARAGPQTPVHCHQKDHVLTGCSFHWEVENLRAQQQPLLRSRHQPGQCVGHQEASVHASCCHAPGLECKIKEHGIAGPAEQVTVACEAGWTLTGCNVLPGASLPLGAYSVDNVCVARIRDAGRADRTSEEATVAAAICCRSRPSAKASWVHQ
T4 sequence (A8T662 31-692 limits assumed): as the sequence (A8T666 31-692 limits assumed) above, with P607A, K639E counted along it

B1: H1H316P (antibody, V domains shown)
VH: EVQLVESGGGLVQPGGSLRLSCAASGFTFNNYAMNWVRQAPGKGLDWVSTISGSGGTTNYADSVKGRFIISRDSSKHTLYLQMNSLRAEDTAVYYCAKDSNWGNFDLWGRGTLVTVSS
VL: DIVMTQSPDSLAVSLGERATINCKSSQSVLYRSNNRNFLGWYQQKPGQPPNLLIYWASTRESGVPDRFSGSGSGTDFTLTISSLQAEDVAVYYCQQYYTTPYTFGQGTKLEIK
notes: Fully human mAb made in CHO cells; also called mAb316P
B1 was tested, and the OD (Human PCSK9-myc-myc-his [1]) was over 1.5 od, the OD (hPCSK9(D374Y)-mmh [2]) was over 1.5 od and the OD [3] was over 1.5 od. For the same binder, the OD [4] was over 1.5 od, the OD [5] was over 1.5 od and the OD [6] was over 1.5 od. It also gave an OD [7] of over 1.5 od, an OD [8] of over 1.5 od and an IC50 (Human PCSK9-myc-myc-his [9]) of under 0.125 nM. The IC50 [10] was under 0.25 nM, the IC50 [11] was 0.991 nM and the IC50 [12] was 1.3 nM. For the same binder, the IC50 [13] was 42.9 nM, the Kd (Human PCSK9-myc-myc-his [14]) was 0.142 nM and the T1/2 (Human PCSK9-myc-myc-his [14]) was 11 min. The Kd (hPCSK9(D374Y)-mmh [15]) was 1.78 nM, the T1/2 (hPCSK9(D374Y)-mmh [15]) was 14 min and the Kd (Human PCSK9-myc-myc-his [16]) was 0.339 nM. It also gave a T1/2 (Human PCSK9-myc-myc-his [16]) of 45 min, a Kd (Human PCSK9-myc-myc-his [17]) of 0.144 nM and a T1/2 (Human PCSK9-myc-myc-his [17]) of 83 min.

B2: H1M300N (antibody, V domains shown)
VH: EMQLVESGGGLVQPGGSLRLSCAASGFTFSSHWMKWVRQAPGKGLEWVANINQDGSEKYYVDSVKGRFTISRDNAKNSLFLQMNSLRAEDTAVYYCARDIVLMVYDMDYYYYGMDVWGQGTTVTVSS
VL: not shown
notes: Fully human version made in CHO cells
In the case of B2, the OD (Human PCSK9-myc-myc-his [1]) is reported as over 1.5 od, the OD (hPCSK9(D374Y)-mmh [2]) is reported as over 1.5 od and the OD [3] is reported as over 1.5 od. The OD [4] was over 1.5 od, the OD [5] was under 0.7 od and the OD [6] was under 0.7 od. It also gave an OD [7] of over 1.5 od, an OD [8] of over 1.5 od and an IC50 (Human PCSK9-myc-myc-his [9]) of 0.223 nM. It also gave an IC50 [10] of 3.7 nM, an IC50 [11] of over 100 nM and an IC50 [12] of over 100 nM. It also gave an IC50 [13] of over 100 nM, a Kd (Human PCSK9-myc-myc-his [14]) of 11.9 nM and a T1/2 (Human PCSK9-myc-myc-his [14]) of 1 min. The Kd (hPCSK9(D374Y)-mmh [15]) was 1.06 nM, the T1/2 (hPCSK9(D374Y)-mmh [15]) was 49 min and the Kd (Human PCSK9-myc-myc-his [16]) was 0.31 nM. For the same binder, the T1/2 (Human PCSK9-myc-myc-his [16]) was 119 min, the Kd (Human PCSK9-myc-myc-his [17]) was 1.18 nM and the T1/2 (Human PCSK9-myc-myc-his [17]) was 26 min.
